For one series, the system named is NCCCNCCCCNCCCN
Nature of the series: steady-state oxygen consumption, oxygen electrode. The format is biochemical, Saccharomyces cerevisiae. Particulars: 1.2 mM oxygen, pH 9.35, 10% glycerol, 25 °C, pH 9.35.

The next series relates to CC(=O)NCCCNCCCCNCCCN
The series is described as follows: steady-state oxygen consumption, oxygen electrode. Particulars: 1.2 mM oxygen, pH 9.0, 10% glycerol, 25 °C, pH 9.0. It is filed as biochemical, Saccharomyces cerevisiae.

Consider “Fms1 (Saccharomyces cerevisiae S288C; D94N)”, for which, in the series on NCCCNCCCCNCCCN, the Michaelis constant (Km) was 320 ± 88 µM and the kcat is 2.0 ± 0.3 s⁻¹. Also, in the series with CC(=O)NCCCNCCCCNCCCN, the Km came out at 30 ± 5 µM, the kcat worked out at 9.7 ± 0.2 s⁻¹ and the kcat/Km is 320000 ± 50000 M⁻¹ s⁻¹.

Turning to “Fms1 (Saccharomyces cerevisiae S288C; N195A)”, in the series on NCCCNCCCCNCCCN, the Km was 127 ± 27 µM, the kcat came out at 4.9 ± 0.2 s⁻¹ and the catalytic efficiency (kcat/Km) amounted to 38500 ± 8300 M⁻¹ s⁻¹. In the series on CC(=O)NCCCNCCCCNCCCN, the Km was found to be 104 ± 14 µM, the kcat turned out to be 8.1 ± 0.2 s⁻¹ and the specificity constant (kcat/Km) turned out to be 78000 ± 13000 M⁻¹ s⁻¹.
